For data set [1], the target named is T1, GST-SIP1CZF (mouse, UniProt Q9R0G7 Q9R0G7:957-1156).
T1 sequence: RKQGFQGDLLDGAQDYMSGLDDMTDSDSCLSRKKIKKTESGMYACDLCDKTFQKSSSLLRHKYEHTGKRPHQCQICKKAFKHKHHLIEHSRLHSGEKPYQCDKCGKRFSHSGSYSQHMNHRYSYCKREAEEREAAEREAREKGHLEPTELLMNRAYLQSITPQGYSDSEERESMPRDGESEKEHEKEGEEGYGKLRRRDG
The experiment in a line: EMSA; strong. Conditions: tags: GST; label: 32P. As for the experimental part:
(§1) The DNA binding assay (20 μl) was performed at 25° C., with 1 μg of COS1 total cell protein, […] of poly dI-dC, 10 pg of ³²P-labeled double-stranded oligonucleotide (approx. 10⁴ Cerenkov counts) in the δEF1 binding buffer described previously (30). For supershift experiments, the extracts were incubated with anti-Myc (Santa Cruz) or anti-FLAG (Kodak) antibodies. For competition, an excess of unlabeled double-stranded oligonucleotides was added together with the labeled probe. The binding reaction was loaded onto a 4% polyacrylamide gel (acrylamide/bis-acrylamide, 19:1) prepared in 0.5XTBE buffer. Following electrophoresis, gels were dried, and exposed to X-Ray film. All experiments were repeated at least three times.
(§2) The integrity of both SIP1 zinc finger clusters is necessary for the binding of SIP1FS to DNA: Mutations within NZF3, NZF4, CZF2, CZF3 abolish the DNA-binding activity of either the SIP1NZF or SIP1CZF zinc finger clusters. The wild type and mutated zinc finger clusters were fused to GST and the fusion proteins were produced in E. Coli. After purification, an equal amount of each fusion proteins (0.1 ng) was incubated with 10 pg of labeled Xbra-E probe. Mutations within NZF3, NZF4, CZF2 or CZF3 affect the binding of SIP1FS to the Xbra-WT probe. […]
In general terms: Mobility shift assays separate free from complexed probe on a gel.

Data set [2] addresses T2, GST-SIP1NZF (mouse, UniProt Q9R0G7 Q9R0G7:90-383).
T2 sequence: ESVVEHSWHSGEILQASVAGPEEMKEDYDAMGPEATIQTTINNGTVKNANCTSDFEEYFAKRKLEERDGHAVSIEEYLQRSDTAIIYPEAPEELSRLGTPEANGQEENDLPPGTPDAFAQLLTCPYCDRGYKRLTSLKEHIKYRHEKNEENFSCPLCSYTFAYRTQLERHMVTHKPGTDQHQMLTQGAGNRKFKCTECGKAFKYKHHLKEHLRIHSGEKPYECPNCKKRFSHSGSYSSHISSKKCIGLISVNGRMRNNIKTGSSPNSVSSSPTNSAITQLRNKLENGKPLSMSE
Kind of data set: EMSA; strong. Conditions: tags: GST; label: 32P. As for the experimental part:
as §1, §2

Experimental findings from patent publication US20030044809A1, “Nucleic acid binding of multi-zinc finger transcription factors” (published 2003) are described below.

B1: Xbra-E (dsDNA)
DNA 1: TAAAGTGACCAGGTGTCAGTTCT
DNA 2: AGAACTGACACCTGGTCACTTTA
For the molecule B1, the binding result in data set [1] and in data set [2] was “binds” each time.
